Results on 14 molecules are retold here after patent US20240034757A1 (OXFORD UNIVERSITY INNOVATION, published 2024).

Read-outs that look alike come from different tables or passages of the source.

Test [1] concerns the target T1, P1243_AMBAM (Amblyomma americanum, UniProt A0A0C9S461 26-123).
T1 sequence: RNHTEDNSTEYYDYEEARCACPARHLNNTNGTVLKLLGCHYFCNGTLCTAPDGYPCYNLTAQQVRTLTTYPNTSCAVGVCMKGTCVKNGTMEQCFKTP
Description: BLI.

The target in another test is T2, P991_AMBCA (Amblyomma cajennense, UniProt A0A023FFD0 29-136).
T2 sequence: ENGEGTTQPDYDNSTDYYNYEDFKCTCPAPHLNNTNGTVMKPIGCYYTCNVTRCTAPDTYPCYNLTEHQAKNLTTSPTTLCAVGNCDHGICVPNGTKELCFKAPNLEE
Description: BLI.

In a further test the target is T3, P467_RHIPU (Rhipicephalus pulchellus, UniProt L7M8Z8 22-127).
T3 sequence: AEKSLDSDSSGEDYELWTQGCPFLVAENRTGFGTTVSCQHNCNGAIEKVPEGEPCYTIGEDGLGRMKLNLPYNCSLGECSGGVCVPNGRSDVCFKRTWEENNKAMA
As to the kind of experiment: BLI. On the technique in general: In BLI a coated tip is dipped into the sample, and binding shifts an interference pattern.

Another test has as its target T4, P985_AMBPA (Amblyomma parvum, UniProt A0A023FT45 25-132).
T4 sequence: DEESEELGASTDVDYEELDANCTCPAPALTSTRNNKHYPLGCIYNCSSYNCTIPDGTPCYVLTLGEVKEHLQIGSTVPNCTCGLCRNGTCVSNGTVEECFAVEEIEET
As to the kind of experiment: BLI.

Test [2] concerns the target T1, P1243_AMBAM. As to the kind of experiment: BLI. This is another data set of the same source.
The target in another test is T5, P546_AMBCA (Amblyomma cajennense, UniProt A0A023FBW7 22-118).
T5 sequence: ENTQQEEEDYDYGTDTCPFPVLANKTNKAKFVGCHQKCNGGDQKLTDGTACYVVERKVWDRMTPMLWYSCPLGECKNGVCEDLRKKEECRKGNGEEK
As to the kind of experiment: BLI.

Another test deals with T6, P1181_AMBMA (Amblyomma maculatum, UniProt G3MIX6 26-115).
T6 sequence: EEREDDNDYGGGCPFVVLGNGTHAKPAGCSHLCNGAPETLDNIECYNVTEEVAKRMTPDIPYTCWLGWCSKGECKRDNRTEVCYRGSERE
Description: BLI.

The target in another test is T7, P1180_AMBTR (Amblyomma triste, UniProt A0A023G6B6 26-116).
T7 sequence: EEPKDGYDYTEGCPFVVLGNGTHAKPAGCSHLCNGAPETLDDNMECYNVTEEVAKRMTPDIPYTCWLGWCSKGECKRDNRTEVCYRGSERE
As to the kind of experiment: BLI.

The next test has as its target T8, P974_AMBCA (Amblyomma cajennense, UniProt A0A023FDY8 22-118).
T8 sequence: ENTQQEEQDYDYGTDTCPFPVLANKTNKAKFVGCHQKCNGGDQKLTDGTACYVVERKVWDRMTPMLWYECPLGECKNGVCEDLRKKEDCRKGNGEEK
Description: BLI.

A further test deals with T9, P1182_AMBMA (Amblyomma maculatum, UniProt G3MJ83 27-115).
T9 sequence: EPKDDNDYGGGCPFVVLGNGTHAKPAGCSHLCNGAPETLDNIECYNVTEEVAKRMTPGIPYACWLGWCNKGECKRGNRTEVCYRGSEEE
Description: BLI.

A further test deals with T10, CXCL7_HUMAN (human, UniProt P02775 59-128).
T10 sequence: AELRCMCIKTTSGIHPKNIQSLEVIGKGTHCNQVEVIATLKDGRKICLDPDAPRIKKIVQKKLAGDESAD
Description: BLI [Cont.].

For another test, the target named is T11, CXCL4_HUMAN (human, UniProt P02776 32-101).
T11 sequence: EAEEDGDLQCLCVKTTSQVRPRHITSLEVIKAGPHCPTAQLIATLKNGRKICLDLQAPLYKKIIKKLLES
As to the kind of experiment: BLI [Cont.].

A further test concerns the target T12, CXCL8_HUMAN (human, UniProt P10145 28-99).
T12 sequence: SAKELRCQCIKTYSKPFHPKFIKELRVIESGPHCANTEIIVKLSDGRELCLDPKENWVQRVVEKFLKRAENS
Description: BLI [Cont.].

Another test deals with T13, CXCL11_HUMAN (human, UniProt O14625 22-94).
T13 sequence: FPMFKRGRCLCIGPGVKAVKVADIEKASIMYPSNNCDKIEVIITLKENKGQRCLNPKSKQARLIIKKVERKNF
As to the kind of experiment: BLI.

The next test has as its target T14, CXCL14_HUMAN (human, UniProt O95715 35-111).
T14 sequence: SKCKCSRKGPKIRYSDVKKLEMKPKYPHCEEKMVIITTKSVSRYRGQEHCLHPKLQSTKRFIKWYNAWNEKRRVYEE
As to the kind of experiment: BLI.

A further test has as its target CXCL12_HUMAN (human, UniProt P48061 22-89). As to the kind of experiment: BLI.
The target of another test is T15, CXCL10_HUMAN (human, UniProt P02778 22-98).
T15 sequence: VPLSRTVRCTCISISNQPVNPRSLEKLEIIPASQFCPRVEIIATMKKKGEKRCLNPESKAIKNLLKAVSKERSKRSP
As to the kind of experiment: BLI.

The target of another test is T16, CXCL9_HUMAN (human, UniProt Q07325 23-125).
T16 sequence: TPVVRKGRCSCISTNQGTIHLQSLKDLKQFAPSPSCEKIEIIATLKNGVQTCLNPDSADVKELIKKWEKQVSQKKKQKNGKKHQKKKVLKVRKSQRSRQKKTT
Description: BLI.

Sequence of CXCL12_HUMAN (P48061 22-89 limits assumed): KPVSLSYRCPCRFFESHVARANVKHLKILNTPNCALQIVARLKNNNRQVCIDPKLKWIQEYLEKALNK

B1: CCL5_HUMAN (ligand)
chain: SPYSSDTTPCCFAYIARPLPRAHIKEYFYTSGKCSNPAVVFVTRKNRQVCANPEKKWVREYINSLEMS
B1: the Kd (as a rule, the equilibrium constant for the complex coming apart) was found to be 1.74 nM in the test with P1243_AMBAM [1]; 1.47 nM with P991_AMBCA; 7.67 nM with P467_RHIPU; 3.5 nM with P985_AMBPA; 1.74 nM in the test with P1243_AMBAM [2].

B2: CCL22_HUMAN (ligand)
chain: GPYGANMEDSVCCRDYVRYRLPLRVVKHFYWTSDSCPRPGVVLLTFRDKEICADPRVPWVKMILNKLSQ
In the test with P1243_AMBAM [2], B2 registered a Kd of 22.3 nM.

B3: CCL18_HUMAN (ligand)
chain: AQVGTNKELCCLVYTSWQIPQKFIVDYSETSPQCPKPGVILLTKRGRQICADPNKKWVQKYISDLKLNA
Take B3: the Kd came to 0.00501 nM with P1243_AMBAM [1]; 0.209 nM in the test with P991_AMBCA; 16.6 nM with P467_RHIPU; 16 nM in the test with P546_AMBCA; 10 nM with P1181_AMBMA; 5.8 nM with P1180_AMBTR. Moreover, the Kd with P985_AMBPA turned out to be 430 nM; with P974_AMBCA, 17 nM; in the test with P1182_AMBMA it was 33 nM; with P1243_AMBAM [2], 0.005 nM.

B4: CCL24_HUMAN (ligand)
chain: VVIPSPCCMFFVSKRIPENRVVSYQLSSRSTCLKAGVIFTTKKGQQFCGDPKQEWVQRYMKNLDAKQKKASPRARAVA
B4: in the test with P1243_AMBAM [2], binding was characterised by a dissociation constant (Kd) of 7.39 nM. That is a single-digit nanomolar value.

B5: CCL17_HUMAN (ligand)
chain: ARGTNVGRECCLEYFKGAIPLRKLKTWYQTSEDCSRDAIVFVTVQGRAICSDPNNKRVKNAVKYLQSLERS
With B5, the Kd came to 0.734 nM with P1243_AMBAM [1]; 7.66 nM with P991_AMBCA; 70 nM in the test with P546_AMBCA; 70.6 nM with P974_AMBCA; 0.734 nM with P1243_AMBAM [2].

B6: P458_IXORI (other)
chain: GSKQPGAAGSSSDSVEAVFCPTNCTKGTNGAWSGCSDDCICVHVGENTEGSCMKFSGDYDYPTPEA
As for B6, the binding result in the test with CXCL7_HUMAN, in the test with CXCL4_HUMAN, in the test with CXCL8_HUMAN, with CXCL11_HUMAN, in the test with CXCL14_HUMAN and with CXCL12_HUMAN was “no binding (tested: 300 nM)” each time. The binding result in the test with CXCL10_HUMAN was “no binding (tested: 300 nM)”.

B7: P1134_IXORI (other)
chain: NEEVFTVEYCGMNCTQKSDGTWTECSGKNKDCRCYHESDAREGLCLSTEYTDFSQFETPSNSDLEAATPRPRKTLYPVRNPHGPKTRGLGYDKRILRDRVKFLI
In the case of B7, the binding result with CXCL12_HUMAN is “no binding (tested: 300 nM)”.

B8: CCL1_HUMAN (ligand)
chain: KSMQVPFSRCCFSFAEQEIPLRAILCYRNTSSICSNEGLIFKLKRGKEACALDTVGWVQRHRKMLRHCPSKRK
With B8, the Kd turned out to be 21.3 nM in the test with P1243_AMBAM [1]; 53.4 nM with P467_RHIPU; 160 nM in the test with P546_AMBCA; 8.3 nM with P985_AMBPA; 70.5 nM in the test with P974_AMBCA; 21.2 nM with P1243_AMBAM [2].

B9: P1124_IXORI (other)
chain: DSKGTSDSQDSTKSIKVDFCETNCTKTDGGWTGCTGDCICVSVGDSIEGRCMDFG
With B9, the binding result with CXCL7_HUMAN, with CXCL4_HUMAN, with CXCL8_HUMAN, in the test with CXCL11_HUMAN, with CXCL14_HUMAN and with CXCL10_HUMAN was “no binding (tested: 300 nM)” throughout. In addition, binding with CXCL12_HUMAN was put at a Kd of 212 nM.

B10: CCL19_HUMAN (ligand)
chain: GTNDAEDCCLSVTQKPIPGYIVRNFHYLLIKDGCRVPAVVFTTLRGRQLCAPPDQPWVERIIQRLQRTSAKMKRRSS
In the case of B10, the Kd came to 0.592 nM with P1243_AMBAM [1], 14.4 nM with P991_AMBCA and 0.592 nM with P1243_AMBAM [2].

B11: P1096_IXORI (other)
chain: HTTVTGSVEGKPNNPNEDIEVSYCRMNCTVENGVSSACSGDCVCVHRDNEPNGICVEITYFGDFGDPSQDPSIDEAAPRESVSKRRSNGES
Regarding B11, the binding result with CXCL9_HUMAN and with CXCL12_HUMAN was “no binding (tested: 300 nM)” in each case.

B12: P1095_IXORI (other)
chain: HSPVAGSEVQKLTSDPNDDIDVSYCGMNCTVVNGKSDECSENCKCLHEGDDPKGICVAITYFGDWGDPNDDPKINEATPQTQIFEKKRK
For the molecule B12, the binding result in the test with CXCL9_HUMAN was “no binding (tested: 300 nM)”.

B13: CCL27_HUMAN (ligand)
chain: FLLPPSTACCTQLYRKPLSDKLLRKVIQVELQEADGDCHLQAFVLHLAQRSICIHPQNPSLSQWFEHQERKLHGTLPKLNFGMLRKMG
On to B13, for which the Kd with P1243_AMBAM [1] and with P1243_AMBAM [2] was 15.1 nM in each case.

B14: P1100_IXORI (other)
chain: GSKGSSASQSSDNSVVAKFCDTNCTINEGGKWTECKGGCFCVHVGNETVGRCMKLDGDYDYPSPKPEE
For the molecule B14, the binding result in the test with CXCL7_HUMAN, with CXCL4_HUMAN, in the test with CXCL8_HUMAN, with CXCL14_HUMAN and in the test with CXCL12_HUMAN was “no binding (tested: 300 nM)” throughout.
